Assay results published in article PMC13544220, “Glycemic and bodyweight effects of GIPR coding variation reflect differences in surface expression and intrinsic functional impairment” (Science Advances, 2026).

Experiments:
[1] = tested on: wild-type and variant SNAP-GIPR; experiment: Surface SNAP-GIPR expression (SNAP-tag labelling) in AD293 cells; type: cell-based, human; conditions: for AD293 Surface: Fig S3E, mean; for Surface SNAP-GIPR expression: sheet Fig 1C;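 as to all read-outs here: scaled to the experimental average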
Procedure, shortened: (§1)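 Surface GIPR is quantified from wide-field images after labelling intact transfected cells with a membrane-impermeant SNAP probe at 500 nM for 10 min at room temperature. Specific signal, corrected for nontransfected cells, is normalized to the experiment-wide average or to wild-type.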

[2] = tested on: wild-type and variant SNAP-GIPR; experiment: Surface SNAP-GIPR expression (SNAP-tag labelling) in INS-1 cells; type: cell-based, human; conditions: Fig 4G; Mean
Procedure, shortened: as §1

[3] = tested on: wild-type and variant SNAP-GIPR; experiment: Single-concentration GIP cAMP response by HTRF in INS-1 cells; type: cell-based, human; conditions: Fig S3E, mean
Protocol: All variants were tested in parallel on each occasion to control for transfection efficiency differences between experiments.

[4] = tested on: wild-type and variant SNAP-GIPR in Gipr-/- mouse islets; experiment: Insulin secretion from Gipr-/- mouse islets transduced with GIPR adenoviruses; type: cell-based; conditions: Fig 6D, Gipr-/- mouse islets
Protocol: (§2) Isolated islets used for insulin secretion assays were treated in 1.5-ml microcentrifuge tubes. Eight-ten islets were used per well with two-three technical replicates per condition. […] At the end of the treatment, supernatants containing the secreted insulin or glucagon were collected, centrifuged at 1000g for 5 min, and transferred to fresh tubes. […] The lysates were sonicated 3× for 10 s in a water bath and centrifuged at 10,000g for 10 min, and the supernatants were collected. The samples were stored at −20°C until the insulin or glucagon concentrations were determined using an Insulin Ultra-Sensitive HTRF Assay kit (62IN2PEG, Revvity) or an HTRF Glucagon Detection Kit (62CGLPEG, Revvity) respectively, according to the manufacturer’s instructions. GraphPad Prism 9.0 was used for the generation of the standard curve and sample concentration extrapolation. The total insulin or glucagon content was calculated by adding the secreted insulin to the insulin content of the lysates, and secretion was reported as the percentage release of total. The percent secretion of islets treated with agonist was normalized to that of islets treated with vehicle and reported as a fold change.

[5] = tested on: wild-type and variant SNAP-GIPR in wild-type mouse islets; experiment: Insulin secretion from wild-type mouse islets transduced with GIPR adenoviruses; type: cell-based; conditions: Fig 6F
Protocol: as §2, with “The samples were stored at −20°C until the insulin or glucagon concentrations were determined using an Insulin Ultra-Sensitive HTRF Assay kit (62IN2PEG, Revvity) or an HTRF Glucagon Detection Kit (62CGLPEG, Revvity) respectively, according to the manufacturer’s instructions.” left out

[6] = tested on: wild-type and variant SNAP-GIPR in Gipr-/- mouse islets; experiment: Glucagon secretion from Gipr-/- mouse islets transduced with GIPR adenoviruses; type: cell-based; conditions: Fig S6C, Gipr-/- mouse islets
Protocol: as §2

B1: R190Q (protein)
chain: RAETGSKGQTAGELYQRWERYRRECQETLAAAEPPSGLACNGSFDMYVCWDYAAPNATARASCPWYLPWHHHVAAGFVLRQCGSDGQWGLWRDHTQCENPEKNEAFLDQRLILERLQVMYTVGYSLSLATLLLALLILSLFRRLHCTRNYIHINLFTSFMLRAAAILSQDRLLPRPGPYLGDQALALWNQALAACRTAQIVTQYCVGANYTWLLVEGVYLHSLLVLVGGSEEGHFRYYLLLGWGAPALFVIPWVIVRYLYENTQCWERNEVKAIWWIIRTPILMTILINFLIFIRILGILLSKLRTRQMRCRDYRLRLARSTLTLVPLLGVHEVVFAPVTEEQARGALRFAKLGFEIFLSSFQGFLVSVLYCFINKEVQSEIRRGWHHCRLRRSLGEEQRQLPERAFRALPSGSGPGEVPTSRGLSSGTLPGPGNEASRELESYC
modifications: left off: SNAP-tag, end not stated, kept
[1]; column repeated, paired with cAMP 100 nM
  AD293 Surface: 0.3804
[1]; paired with cAMP 100 pM
  AD293 Surface: 0.3804
[1]; replicate 1
  Surface SNAP-GIPR expression: 0.4051
[1]; replicate 2
  Surface SNAP-GIPR expression: 0.3209
[1]; replicate 3
  Surface SNAP-GIPR expression: 0.5539
[1]; replicate 4
  Surface SNAP-GIPR expression: 0.3598
[1]; replicate 5
  Surface SNAP-GIPR expression: 0.3596
[1]; replicate 6
  Surface SNAP-GIPR expression: 0.3496
[1]; replicate 7
  Surface SNAP-GIPR expression: 0.6994
[1]; replicate 8
  Surface SNAP-GIPR expression: 0.559
[1]; replicate 9
  Surface SNAP-GIPR expression: 0.4541
[1]; replicate 10
  Surface SNAP-GIPR expression: 0.3587
[1]; replicate 11
  Surface SNAP-GIPR expression: 0.3825
[1]; replicate 12
  Surface SNAP-GIPR expression: 0.3815
[1]; replicate 13
  Surface SNAP-GIPR expression: 0.0633
[1]; replicate 14
  Surface SNAP-GIPR expression: 0.2489
[1]; replicate 15
  Surface SNAP-GIPR expression: 0.3401
[1]; replicate 16
  Surface SNAP-GIPR expression: 0.3428
[1]; replicate 17
  Surface SNAP-GIPR expression: 0.3498
[1]; replicate 18
  Surface SNAP-GIPR expression: 0.3062
[1]; replicate 19
  Surface SNAP-GIPR expression: 0.4941
[1]; replicate 20
  Surface SNAP-GIPR expression: 0.4147
[1]; replicate 21
  Surface SNAP-GIPR expression: 0.448
[1]; replicate 22
  Surface SNAP-GIPR expression: 0.3466
[1]; replicate 23
  Surface SNAP-GIPR expression: 0.3211
[1]; replicate 24
  Surface SNAP-GIPR expression: 0.3185
[1]; replicate 25
  Surface SNAP-GIPR expression: 0.3831
[1]; replicate 26
  Surface SNAP-GIPR expression: 0.4894
[1]; replicate 27
  Surface SNAP-GIPR expression: 0.2936
[1]; replicate 28
  Surface SNAP-GIPR expression: 0.2968
[1]; replicate 29
  Surface SNAP-GIPR expression: 0.3488
[1]; replicate 30
  Surface SNAP-GIPR expression: 0.3484
[1]; replicate 31
  Surface SNAP-GIPR expression: 0.4442
[1]; replicate 32
  Surface SNAP-GIPR expression: 0.3528
[1]; replicate 33
  Surface SNAP-GIPR expression: 0.3442
[1]; replicate 34
  Surface SNAP-GIPR expression: 0.4073
[1]; replicate 35
  Surface SNAP-GIPR expression: 0.5179
[1]; replicate 36
  Surface SNAP-GIPR expression: 0.2819
[1]; replicate 37
  Surface SNAP-GIPR expression: 0.3273
[1]; replicate 38
  Surface SNAP-GIPR expression: 0.3893
[1]; replicate 39
  Surface SNAP-GIPR expression: 0.3839
[1]; replicate 40
  Surface SNAP-GIPR expression: 0.3508
[1]; replicate 41
  Surface SNAP-GIPR expression: 0.4598
[2]
  Surface expression: 0.5789
[3]
  INS-1 cAMP (100 nM): -0.04979
[4]; replicate 1
  Insulin secretion, ratio G11 + GIP / G11: 0.6189
[4]; replicate 2
  Insulin secretion, ratio G11 + GIP / G11: 1.413
[4]; replicate 3
  Insulin secretion, ratio G11 + GIP / G11: 1.022
[4]; replicate 4
  Insulin secretion, ratio G11 + GIP / G11: 0.3777
[5]; replicate 1
  Insulin secretion, ratio G11 + GIP / G11: 1.037
[5]; replicate 2
  Insulin secretion, ratio G11 + GIP / G11: 0.9818
[5]; replicate 3
  Insulin secretion, ratio G11 + GIP / G11: 1.417
[5]; replicate 4
  Insulin secretion, ratio G11 + GIP / G11: 0.8398
[5]; replicate 5
  Insulin secretion, ratio G11 + GIP / G11: 1.788
[6]; replicate 1
  Glucagon secretion, ratio G0.5 + GIP / G0.5: 0.4628
[6]; replicate 2
  Glucagon secretion, ratio G0.5 + GIP / G0.5: 1.4505
[6]; replicate 3
  Glucagon secretion, ratio G0.5 + GIP / G0.5: 0.8994
[6]; replicate 4
  Glucagon secretion, ratio G0.5 + GIP / G0.5: 1.147
